Measurements as given in EP4745153A1, “GLP-1, GIP AND GCG RECEPTOR […] USE THEREOF” (Jiangsu Hengrui Pharmaceuticals Co., Ltd., priority 2023, dated 2025).
Like-named read-outs stand apart in the source and are kept apart here. Starred links: 1 amine or outer side, 2 acyl side, 3 side chain; linkers in the order of their positions; H or OH if unused. Non-standard residues stand in square brackets, D forms with d. Groups on a side chain read outwards from the residue. No end group written: not given here. *: point of attachment. C20 diacid = O=C(O)CCCCCCCCCCCCCCCCCCC(=O)*; C17 diacid = O=C(O)CCCCCCCCCCCCCCCC(=O)*; γGlu = O=C(O)[C@H](CCC(=O)[*:2])N[*:1]; αMeK = C[C@](N)(CCCCN)C(=O)O; Ac4c = NC1(C(=O)O)CCC1; AEEA = NCCOCCOCC(=O)O; Ac3c = NC1(C(=O)O)CC1; Aib = CC(C)(N)C(=O)O

Columns and labels:
Experiment in all cases: cell-based or functional assay
[1] = biological target: human glucagon-like peptide-1 receptor (human, UniProt P43220 24-463)
[2] = biological target: T1, human glucose-dependent insulinotropic polypeptide receptor (human, UniProt P48546 22-466)
T1 sequence (looked up): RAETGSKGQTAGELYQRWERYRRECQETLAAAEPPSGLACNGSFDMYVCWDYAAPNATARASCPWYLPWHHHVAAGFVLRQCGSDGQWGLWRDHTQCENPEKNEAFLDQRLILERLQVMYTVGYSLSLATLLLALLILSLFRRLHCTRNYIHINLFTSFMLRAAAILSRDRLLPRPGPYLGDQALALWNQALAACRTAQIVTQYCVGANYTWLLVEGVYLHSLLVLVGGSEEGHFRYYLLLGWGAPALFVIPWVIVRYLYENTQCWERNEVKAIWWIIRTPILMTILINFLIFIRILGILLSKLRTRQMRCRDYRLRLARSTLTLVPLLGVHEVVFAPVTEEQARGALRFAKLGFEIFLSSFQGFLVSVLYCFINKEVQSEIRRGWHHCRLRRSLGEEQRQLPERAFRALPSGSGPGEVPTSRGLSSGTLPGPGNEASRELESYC

human glucagon receptor = human glucagon receptor (human, UniProt P47871 26-477)
[3] = biological target: T1, human glucose-dependent insulinotropic …; remark: listed apart in the source

Chain of human glucagon receptor (P47871 26-477): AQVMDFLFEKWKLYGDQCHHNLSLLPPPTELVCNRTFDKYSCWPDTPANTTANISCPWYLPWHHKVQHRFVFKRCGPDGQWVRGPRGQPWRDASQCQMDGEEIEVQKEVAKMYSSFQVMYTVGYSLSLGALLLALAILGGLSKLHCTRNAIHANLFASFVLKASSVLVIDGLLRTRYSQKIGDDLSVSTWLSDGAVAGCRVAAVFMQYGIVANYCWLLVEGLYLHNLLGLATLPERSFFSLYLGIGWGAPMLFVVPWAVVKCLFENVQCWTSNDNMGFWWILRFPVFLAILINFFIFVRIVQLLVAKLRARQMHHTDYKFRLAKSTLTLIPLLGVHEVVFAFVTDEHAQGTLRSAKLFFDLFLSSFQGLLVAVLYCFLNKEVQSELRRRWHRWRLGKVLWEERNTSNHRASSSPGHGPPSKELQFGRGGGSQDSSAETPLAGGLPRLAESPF

B1: Compound No. 0145 (peptide)
peptide: H[Aib]HGTFTSDLSILLEK([AEEA-AEEA-γGlu-C20 diacid])QAA[Ac4c]EFVEWLLA[dE]GPSSGAPPPS-NH2
modifications: N-terminus assumed
SMILES: CC[C@H](C)[C@H](NC(=O)[C@H](CO)NC(=O)[C@H](CC(C)C)NC(=O)[C@H](CC(=O)O)NC(=O)[C@H](CO)NC(=O)[C@@H](NC(=O)[C@H](Cc1ccccc1)NC(=O)[C@@H](NC(=O)CNC(=O)[C@H](Cc1c[nH]cn1)NC(=O)C(C)(C)NC(=O)[C@@H](N)Cc1c[nH]cn1)[C@@H](C)O)[C@@H](C)O)C(=O)N[C@@H](CC(C)C)C(=O)N[C@@H](CC(C)C)C(=O)N[C@@H](CCC(=O)O)C(=O)N[C@@H](CCCCNC(=O)COCCOCCNC(=O)COCCOCCNC(=O)CC[C@H](NC(=O)CCCCCCCCCCCCCCCCCCC(=O)O)C(=O)O)C(=O)N[C@@H](CCC(N)=O)C(=O)N[C@@H](C)C(=O)N[C@@H](C)C(=O)NC1(C(=O)N[C@@H](CCC(=O)O)C(=O)N[C@@H](Cc2ccccc2)C(=O)N[C@H](C(=O)N[C@@H](CCC(=O)O)C(=O)N[C@@H](Cc2c[nH]c3ccccc23)C(=O)N[C@@H](CC(C)C)C(=O)N[C@@H](CC(C)C)C(=O)N[C@@H](C)C(=O)N[C@H](CCC(=O)O)C(=O)NCC(=O)N2CCC[C@H]2C(=O)N[C@@H](CO)C(=O)N[C@@H](CO)C(=O)NCC(=O)N[C@@H](C)C(=O)N2CCC[C@H]2C(=O)N2CCC[C@H]2C(=O)N2CCC[C@H]2C(=O)N[C@@H](CO)C(N)=O)C(C)C)CCC1
- Activity against human GLP-1R (EC50 nM) [1]: 0.057 nM
- Activity against human GIPR (EC50 nM) [2]: 0.003 nM
- Activity against human GCGR (EC50 nM) (human glucagon receptor): 0.143 nM

B2: Compound No. 0118 (peptide)
peptide: H[Aib]HGTFTSDYS[αMeK]LLEK([AEEA-AEEA-γGlu-C17 diacid])IAAQEFVEWLLAGGPSSGAPPPS-NH2
modifications: N-terminus assumed
SMILES: CC[C@H](C)[C@H](NC(=O)[C@H](CCCCNC(=O)COCCOCCNC(=O)COCCOCCNC(=O)CC[C@H](NC(=O)CCCCCCCCCCCCCCCC(=O)O)C(=O)O)NC(=O)[C@H](CCC(=O)O)NC(=O)[C@H](CC(C)C)NC(=O)[C@H](CC(C)C)NC(=O)[C@](C)(CCCCN)NC(=O)[C@H](CO)NC(=O)[C@H](Cc1ccc(O)cc1)NC(=O)[C@H](CC(=O)O)NC(=O)[C@H](CO)NC(=O)[C@@H](NC(=O)[C@H](Cc1ccccc1)NC(=O)[C@@H](NC(=O)CNC(=O)[C@H](Cc1c[nH]cn1)NC(=O)C(C)(C)NC(=O)[C@@H](N)Cc1c[nH]cn1)[C@@H](C)O)[C@@H](C)O)C(=O)N[C@@H](C)C(=O)N[C@@H](C)C(=O)N[C@@H](CCC(N)=O)C(=O)N[C@@H](CCC(=O)O)C(=O)N[C@@H](Cc1ccccc1)C(=O)N[C@H](C(=O)N[C@@H](CCC(=O)O)C(=O)N[C@@H](Cc1c[nH]c2ccccc12)C(=O)N[C@@H](CC(C)C)C(=O)N[C@@H](CC(C)C)C(=O)N[C@@H](C)C(=O)NCC(=O)NCC(=O)N1CCC[C@H]1C(=O)N[C@@H](CO)C(=O)N[C@@H](CO)C(=O)NCC(=O)N[C@@H](C)C(=O)N1CCC[C@H]1C(=O)N1CCC[C@H]1C(=O)N1CCC[C@H]1C(=O)N[C@@H](CO)C(N)=O)C(C)C
- Activity against human GIPR (EC50 nM) [3]: 0.004 nM

B3: Compound No. 0146 (peptide)
peptide: H[Aib]HGTFTSDLSILLEK([AEEA-AEEA-γGlu-C20 diacid])KAA[Ac3c]EFVEWLLA[dE]GPSSGAPPPS-NH2
modifications: N-terminus assumed
SMILES: CC[C@H](C)[C@H](NC(=O)[C@H](CO)NC(=O)[C@H](CC(C)C)NC(=O)[C@H](CC(=O)O)NC(=O)[C@H](CO)NC(=O)[C@@H](NC(=O)[C@H](Cc1ccccc1)NC(=O)[C@@H](NC(=O)CNC(=O)[C@H](Cc1c[nH]cn1)NC(=O)C(C)(C)NC(=O)[C@@H](N)Cc1c[nH]cn1)[C@@H](C)O)[C@@H](C)O)C(=O)N[C@@H](CC(C)C)C(=O)N[C@@H](CC(C)C)C(=O)N[C@@H](CCC(=O)O)C(=O)N[C@@H](CCCCNC(=O)COCCOCCNC(=O)COCCOCCNC(=O)CC[C@H](NC(=O)CCCCCCCCCCCCCCCCCCC(=O)O)C(=O)O)C(=O)N[C@@H](CCCCN)C(=O)N[C@@H](C)C(=O)N[C@@H](C)C(=O)NC1(C(=O)N[C@@H](CCC(=O)O)C(=O)N[C@@H](Cc2ccccc2)C(=O)N[C@H](C(=O)N[C@@H](CCC(=O)O)C(=O)N[C@@H](Cc2c[nH]c3ccccc23)C(=O)N[C@@H](CC(C)C)C(=O)N[C@@H](CC(C)C)C(=O)N[C@@H](C)C(=O)N[C@H](CCC(=O)O)C(=O)NCC(=O)N2CCC[C@H]2C(=O)N[C@@H](CO)C(=O)N[C@@H](CO)C(=O)NCC(=O)N[C@@H](C)C(=O)N2CCC[C@H]2C(=O)N2CCC[C@H]2C(=O)N2CCC[C@H]2C(=O)N[C@@H](CO)C(N)=O)C(C)C)CC1
- Activity against human GLP-1R (EC50 nM) [1]: 0.033 nM
- Activity against human GIPR (EC50 nM) [2]: 0.009 nM
- Activity against human GCGR (EC50 nM) (human glucagon receptor): 0.146 nM

B4: Compound No. 0117 (peptide)
peptide: H[Aib]HGTFTSDYS[αMeK]LLEK([AEEA-AEEA-γGlu-C20 diacid])QAAQEFVEWLLAGGPSSGAPPPS-NH2
modifications: N-terminus assumed
SMILES: CC(C)C[C@H](NC(=O)[C@H](CC(C)C)NC(=O)[C@H](Cc1c[nH]c2ccccc12)NC(=O)[C@H](CCC(=O)O)NC(=O)[C@@H](NC(=O)[C@H](Cc1ccccc1)NC(=O)[C@H](CCC(=O)O)NC(=O)[C@H](CCC(N)=O)NC(=O)[C@H](C)NC(=O)[C@H](C)NC(=O)[C@H](CCC(N)=O)NC(=O)[C@H](CCCCNC(=O)COCCOCCNC(=O)COCCOCCNC(=O)CC[C@H](NC(=O)CCCCCCCCCCCCCCCCCCC(=O)O)C(=O)O)NC(=O)[C@H](CCC(=O)O)NC(=O)[C@H](CC(C)C)NC(=O)[C@H](CC(C)C)NC(=O)[C@](C)(CCCCN)NC(=O)[C@H](CO)NC(=O)[C@H](Cc1ccc(O)cc1)NC(=O)[C@H](CC(=O)O)NC(=O)[C@H](CO)NC(=O)[C@@H](NC(=O)[C@H](Cc1ccccc1)NC(=O)[C@@H](NC(=O)CNC(=O)[C@H](Cc1c[nH]cn1)NC(=O)C(C)(C)NC(=O)[C@@H](N)Cc1c[nH]cn1)[C@@H](C)O)[C@@H](C)O)C(C)C)C(=O)N[C@@H](C)C(=O)NCC(=O)NCC(=O)N1CCC[C@H]1C(=O)N[C@@H](CO)C(=O)N[C@@H](CO)C(=O)NCC(=O)N[C@@H](C)C(=O)N1CCC[C@H]1C(=O)N1CCC[C@H]1C(=O)N1CCC[C@H]1C(=O)N[C@@H](CO)C(N)=O
- Activity against human GIPR (EC50 nM) [3]: 0.003 nM

B5: Compound No. 0114 (peptide)
peptide: Y[Aib]QGTFTSDYS[αMeK]LLEK([AEEA-AEEA-γGlu-C20 diacid])KAAQEFVEWLLAGGPSSGAPPPS-NH2
modifications: N-terminus assumed
SMILES: CC(C)C[C@H](NC(=O)[C@H](CC(C)C)NC(=O)[C@H](Cc1c[nH]c2ccccc12)NC(=O)[C@H](CCC(=O)O)NC(=O)[C@@H](NC(=O)[C@H](Cc1ccccc1)NC(=O)[C@H](CCC(=O)O)NC(=O)[C@H](CCC(N)=O)NC(=O)[C@H](C)NC(=O)[C@H](C)NC(=O)[C@H](CCCCN)NC(=O)[C@H](CCCCNC(=O)COCCOCCNC(=O)COCCOCCNC(=O)CC[C@H](NC(=O)CCCCCCCCCCCCCCCCCCC(=O)O)C(=O)O)NC(=O)[C@H](CCC(=O)O)NC(=O)[C@H](CC(C)C)NC(=O)[C@H](CC(C)C)NC(=O)[C@](C)(CCCCN)NC(=O)[C@H](CO)NC(=O)[C@H](Cc1ccc(O)cc1)NC(=O)[C@H](CC(=O)O)NC(=O)[C@H](CO)NC(=O)[C@@H](NC(=O)[C@H](Cc1ccccc1)NC(=O)[C@@H](NC(=O)CNC(=O)[C@H](CCC(N)=O)NC(=O)C(C)(C)NC(=O)[C@@H](N)Cc1ccc(O)cc1)[C@@H](C)O)[C@@H](C)O)C(C)C)C(=O)N[C@@H](C)C(=O)NCC(=O)NCC(=O)N1CCC[C@H]1C(=O)N[C@@H](CO)C(=O)N[C@@H](CO)C(=O)NCC(=O)N[C@@H](C)C(=O)N1CCC[C@H]1C(=O)N1CCC[C@H]1C(=O)N1CCC[C@H]1C(=O)N[C@@H](CO)C(N)=O
- Activity against human GIPR (EC50 nM) [3]: 0.01 nM

B6: Compound No. 0147 (peptide)
peptide: H[Aib]HGTFTSDLSILLEK([AEEA-AEEA-γGlu-C20 diacid])KAA[Ac4c]EFVEWLLA[dE]GPSSGAPPPS-NH2
modifications: N-terminus assumed
SMILES: CC[C@H](C)[C@H](NC(=O)[C@H](CO)NC(=O)[C@H](CC(C)C)NC(=O)[C@H](CC(=O)O)NC(=O)[C@H](CO)NC(=O)[C@@H](NC(=O)[C@H](Cc1ccccc1)NC(=O)[C@@H](NC(=O)CNC(=O)[C@H](Cc1c[nH]cn1)NC(=O)C(C)(C)NC(=O)[C@@H](N)Cc1c[nH]cn1)[C@@H](C)O)[C@@H](C)O)C(=O)N[C@@H](CC(C)C)C(=O)N[C@@H](CC(C)C)C(=O)N[C@@H](CCC(=O)O)C(=O)N[C@@H](CCCCNC(=O)COCCOCCNC(=O)COCCOCCNC(=O)CC[C@H](NC(=O)CCCCCCCCCCCCCCCCCCC(=O)O)C(=O)O)C(=O)N[C@@H](CCCCN)C(=O)N[C@@H](C)C(=O)N[C@@H](C)C(=O)NC1(C(=O)N[C@@H](CCC(=O)O)C(=O)N[C@@H](Cc2ccccc2)C(=O)N[C@H](C(=O)N[C@@H](CCC(=O)O)C(=O)N[C@@H](Cc2c[nH]c3ccccc23)C(=O)N[C@@H](CC(C)C)C(=O)N[C@@H](CC(C)C)C(=O)N[C@@H](C)C(=O)N[C@H](CCC(=O)O)C(=O)NCC(=O)N2CCC[C@H]2C(=O)N[C@@H](CO)C(=O)N[C@@H](CO)C(=O)NCC(=O)N[C@@H](C)C(=O)N2CCC[C@H]2C(=O)N2CCC[C@H]2C(=O)N2CCC[C@H]2C(=O)N[C@@H](CO)C(N)=O)C(C)C)CCC1
- Activity against human GLP-1R (EC50 nM) [1]: 0.035 nM
- Activity against human GIPR (EC50 nM) [2]: 0.005 nM
- Activity against human GCGR (EC50 nM) (human glucagon receptor): 0.041 nM
